B1: AAVS1 A10 (mixed)
RNA: GGGUCUGAGGGUGGAGGGACUGGUUGUAGCUCCCUUUCUCAUUUCGGAAACGAAAUGAGAACCGUUGCUACAAUAAGGCCGUCUGAAAAGAUGUGCCGCAACGCUCUGCCCCUUAAAGCUUCUGCUUUAAGGGGCAUCGUUUAUUUUUUU
DNA 1: GGGTCTGAGGGTGGAGGGACTGGGGGCC
DNA 2: GGCCCCCAGTCCCTCCACCCTCAGACCC
B2: VEGFA V21 (mixed)
RNA: GUCUCGAGGUAGCCCCAGCCCGGGUUGUAGCUCCCUUUCUCAUUUCGGAAACGAAAUGAGAACCGUUGCUACAAUAAGGCCGUCUGAAAAGAUGUGCCGCAACGCUCUGCCCCUUAAAGCUUCUGCUUUAAGGGGCAUCGUUUAUUUUUUU
DNA 1: TCTCGAGGTAGCCCCAGCCCGGGGATCCAG
DNA 2: CTGGATCCCCGGGCTGGGGCTACCTCGAGA
B3: AAVS1 A46 (mixed)
RNA: GAAGCCUGAGCGCCUCUCCUGGGGUUGUAGCUCCCUUUCUCAUUUCGGAAACGAAAUGAGAACCGUUGCUACAAUAAGGCCGUCUGAAAAGAUGUGCCGCAACGCUCUGCCCCUUAAAGCUUCUGCUUUAAGGGGCAUCGUUUAUUUUUUU
DNA 1: AAGCCTGAGCGCCTCTCCTGGGCTTGCCAA
DNA 2: TTGGCAAGCCCAGGAGAGGCGCTCAGGCTT
B4: AAVS1 A3 (mixed)
RNA: GCAGCGCAAAGUGACAAUGGCCGUUGUAGCUCCCUUUCUCAUUUCGGAAACGAAAUGAGAACCGUUGCUACAAUAAGGCCGUCUGAAAAGAUGUGCCGCAACGCUCUGCCCCUUAAAGCUUCUGCUUUAAGGGGCAUCGUUUAUUUUUUU
DNA 1: GCAGCGCAAAGTGACAATGGCCAGGGCC
DNA 2: GGCCCTGGCCATTGTCACTTTGCGCTGC
B5: AAVS1 A41 (mixed)
RNA: GAGGACUGCAUGGGUCAGCACAGGUUGUAGCUCCCUUUCUCAUUUCGGAAACGAAAUGAGAACCGUUGCUACAAUAAGGCCGUCUGAAAAGAUGUGCCGCAACGCUCUGCCCCUUAAAGCUUCUGCUUUAAGGGGCAUCGUUUAUUUUUUU
DNA 1: AGGACTGCATGGGTCAGCACAGGCTGCCAA
DNA 2: TTGGCAGCCTGTGCTGACCCATGCAGTCCT
B6: AAVS1 A59 (mixed)
RNA: GCUGGGACUUGGCCAGACACUGGUUGUAGCUCCCUUUCUCAUUUCGGAAACGAAAUGAGAACCGUUGCUACAAUAAGGCCGUCUGAAAAGAUGUGCCGCAACGCUCUGCCCCUUAAAGCUUCUGCUUUAAGGGGCAUCGUUUAUUUUUUU
DNA 1: GCTGGGACTTGGCCAGACACTGAGGTCCAG
DNA 2: CTGGACCTCAGTGTCTGGCCAAGTCCCAGC
B7: EMX1 E1 (mixed)
RNA: GAAUGUGGUGCUUGAGAAGUGGAGUUGUAGCUCCCUUUCUCAUUUCGGAAACGAAAUGAGAACCGUUGCUACAAUAAGGCCGUCUGAAAAGAUGUGCCGCAACGCUCUGCCCCUUAAAGCUUCUGCUUUAAGGGGCAUCGUUUAUUUUUUU
DNA 1: AATGTGGTGCTTGAGAAGTGGATGGCCCAA
DNA 2: TTGGGCCATCCACTTCTCAAGCACCACATT
B8: AAVS1 A7 (mixed)
RNA: GUCUGUCCCCUCCACCCCACAGUGUUGUAGCUCCCUUUCUCAUUUCGGAAACGAAAUGAGAACCGUUGCUACAAUAAGGCCGUCUGAAAAGAUGUGCCGCAACGCUCUGCCCCUUAAAGCUUCUGCUUUAAGGGGCAUCGUUUAUUUUUUU
DNA 1: TCTGTCCCCTCCACCCCACAGTGGGGCC
DNA 2: GGCCCCACTGTGGGGTGGAGGGGACAGA
B9: VEGFA V17 (mixed)
RNA: GCCGGGACCCUCCACUCCUCCUGGUUGUAGCUCCCUUUCUCAUUUCGGAAACGAAAUGAGAACCGUUGCUACAAUAAGGCCGUCUGAAAAGAUGUGCCGCAACGCUCUGCCCCUUAAAGCUUCUGCUUUAAGGGGCAUCGUUUAUUUUUUU
DNA 1: CCGGGACCCTCCACTCCTCCTGGGCCCCAA
DNA 2: TTGGGGCCCAGGAGGAGTGGAGGGTCCCGG
B10: AAVS1 A33 (mixed)
RNA: GUGAGAAUGGUGCGUCCUAGGUGGUUGUAGCUCCCUUUCUCAUUUCGGAAACGAAAUGAGAACCGUUGCUACAAUAAGGCCGUCUGAAAAGAUGUGCCGCAACGCUCUGCCCCUUAAAGCUUCUGCUUUAAGGGGCAUCGUUUAUUUUUUU
DNA 1: TGAGAATGGTGCGTCCTAGGTGTTCACCAG
DNA 2: CTGGTGAACACCTAGGACGCACCATTCTCA
B11: AAVS1 A2 (mixed)
RNA: GUCAGCAUAGGGUGGCAAAGCCCGUUGUAGCUCCCUUUCUCAUUUCGGAAACGAAAUGAGAACCGUUGCUACAAUAAGGCCGUCUGAAAAGAUGUGCCGCAACGCUCUGCCCCUUAAAGCUUCUGCUUUAAGGGGCAUCGUUUAUUUUUUU
DNA 1: TCAGCATAGGGTGGCAAAGCCCAGGGCC
DNA 2: GGCCCTGGGCTTTGCCACCCTATGCTGA
B12: VEGFA V54 (mixed)
RNA: GCUGUCCCCUCCUGAGCCCAUGGGUUGUAGCUCCCUUUCUCAUUUCGGAAACGAAAUGAGAACCGUUGCUACAAUAAGGCCGUCUGAAAAGAUGUGCCGCAACGCUCUGCCCCUUAAAGCUUCUGCUUUAAGGGGCAUCGUUUAUUUUUUU
DNA 1: CTGTCCCCTCCTGAGCCCATGGGCAACCAT
DNA 2: ATGGTTGCCCATGGGCTCAGGAGGGGACAG
B13: AAVS1 A4 (mixed)
RNA: GCUCUGACCUGCAUUCUCUCCCCGUUGUAGCUCCCUUUCUCAUUUCGGAAACGAAAUGAGAACCGUUGCUACAAUAAGGCCGUCUGAAAAGAUGUGCCGCAACGCUCUGCCCCUUAAAGCUUCUGCUUUAAGGGGCAUCGUUUAUUUUUUU
DNA 1: CTCTGACCTGCATTCTCTCCCCTGGGCC
DNA 2: GGCCCAGGGGAGAGAATGCAGGTCAGAG
B14: AAVS1 A30 (mixed)
RNA: GAGGGAGGAGAGAUGCCCGGAGAGUUGUAGCUCCCUUUCUCAUUUCGGAAACGAAAUGAGAACCGUUGCUACAAUAAGGCCGUCUGAAAAGAUGUGCCGCAACGCUCUGCCCCUUAAAGCUUCUGCUUUAAGGGGCAUCGUUUAUUUUUUU
DNA 1: AGGGAGGAGAGATGCCCGGAGAGGACCCAG
DNA 2: CTGGGTCCTCTCCGGGCATCTCTCCTCCCT
B15: VEGFA V36 (mixed)
RNA: GAGGAAACGACCUGGGACCACCUGUUGUAGCUCCCUUUCUCAUUUCGGAAACGAAAUGAGAACCGUUGCUACAAUAAGGCCGUCUGAAAAGAUGUGCCGCAACGCUCUGCCCCUUAAAGCUUCUGCUUUAAGGGGCAUCGUUUAUUUUUUU
DNA 1: AGGAAACGACCTGGGACCACCTGTTCCCAA
DNA 2: TTGGGAACAGGTGGTCCCAGGTCGTTTCCT
B16: VEGFA V18 (mixed)
RNA: GAGGGGGGUGCCGAGGACCGAAGGUUGUAGCUCCCUUUCUCAUUUCGGAAACGAAAUGAGAACCGUUGCUACAAUAAGGCCGUCUGAAAAGAUGUGCCGCAACGCUCUGCCCCUUAAAGCUUCUGCUUUAAGGGGCAUCGUUUAUUUUUUU
DNA 1: AGGGGGGTGCCGAGGACCGAAGGGCACCAA
DNA 2: TTGGTGCCCTTCGGTCCTCGGCACCCCCCT
B17: VEGFA V60 (mixed)
RNA: GAAGGGUGAGUCUCAGGCCACAGGUUGUAGCUCCCUUUCUCAUUUCGGAAACGAAAUGAGAACCGUUGCUACAAUAAGGCCGUCUGAAAAGAUGUGCCGCAACGCUCUGCCCCUUAAAGCUUCUGCUUUAAGGGGCAUCGUUUAUUUUUUU
DNA 1: AAGGGTGAGTCTCAGGCCACAGGGACCCAA
DNA 2: TTGGGTCCCTGTGGCCTGAGACTCACCCTT

Each binder was assayed against T1, Nsp2Cas9 (Neisseria sp. WF04, UniProt A0A4Y9GBC9) (assay: HEK293T cells). Settings: tags: NLS and HA tags, kept.
T1 sequence: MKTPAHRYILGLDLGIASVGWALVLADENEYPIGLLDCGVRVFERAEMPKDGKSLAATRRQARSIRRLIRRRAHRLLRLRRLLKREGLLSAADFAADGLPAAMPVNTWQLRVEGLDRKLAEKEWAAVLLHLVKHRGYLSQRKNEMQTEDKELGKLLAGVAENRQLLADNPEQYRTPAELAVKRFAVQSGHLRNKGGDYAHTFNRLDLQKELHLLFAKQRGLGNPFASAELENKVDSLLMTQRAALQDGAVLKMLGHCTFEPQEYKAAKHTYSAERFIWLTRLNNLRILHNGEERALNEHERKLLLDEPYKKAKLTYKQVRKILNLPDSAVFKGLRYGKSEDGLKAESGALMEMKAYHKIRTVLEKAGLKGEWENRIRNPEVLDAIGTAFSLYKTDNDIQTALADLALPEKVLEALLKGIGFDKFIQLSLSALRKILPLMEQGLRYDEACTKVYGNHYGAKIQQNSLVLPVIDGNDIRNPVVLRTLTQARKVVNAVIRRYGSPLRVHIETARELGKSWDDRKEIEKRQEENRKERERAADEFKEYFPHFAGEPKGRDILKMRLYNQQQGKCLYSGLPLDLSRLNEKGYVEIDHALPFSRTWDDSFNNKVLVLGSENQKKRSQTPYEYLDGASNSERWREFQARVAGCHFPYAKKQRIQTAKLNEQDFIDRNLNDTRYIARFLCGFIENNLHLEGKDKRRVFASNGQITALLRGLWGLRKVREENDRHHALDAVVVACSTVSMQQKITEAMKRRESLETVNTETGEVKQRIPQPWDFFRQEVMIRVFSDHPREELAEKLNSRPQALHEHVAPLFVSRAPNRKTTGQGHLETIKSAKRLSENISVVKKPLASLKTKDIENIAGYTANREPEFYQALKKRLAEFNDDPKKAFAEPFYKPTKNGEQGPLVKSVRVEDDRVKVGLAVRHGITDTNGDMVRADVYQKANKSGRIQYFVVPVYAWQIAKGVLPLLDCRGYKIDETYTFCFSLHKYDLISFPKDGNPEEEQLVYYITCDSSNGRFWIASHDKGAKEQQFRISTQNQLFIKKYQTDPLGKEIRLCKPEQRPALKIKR
Work on B1 yielded an indel frequency of 30.1 % indels.
B2 gave an indel frequency of 19 % indels.
Work on B3 yielded an indel frequency of 14.9 % indels.
Work on B4 yielded an indel frequency of 7.81 % indels.
B5 showed an indel frequency of 10.8 % indels.
B6 gave an indel frequency of 16.7 % indels.
B7 showed an indel frequency of 7.8 % indels.
B8 showed an indel frequency of 17.4 % indels.
B9 gave an indel frequency of 11.6 % indels.
B10 showed an indel frequency of 17.1 % indels.
With B11 the indel frequency was 14.1 % indels.
Work on B12 yielded an indel frequency of 37 % indels.
With B13 the indel frequency was 6.61 % indels.
For B14, the indel frequency was 12.9 % indels.
B15 gave an indel frequency of 14.6 % indels.
Work on B16 yielded an indel frequency of 16.7 % indels.
In the case of B17, the indel frequency is reported as 12.1 % indels.
